{
  "source": "the nanobody polyreactivity screen of Harvey et al. (2022)",
  "data": [
    {"test": "yeast display, Sf9 membrane polyspecificity reagent, FACS + sequencing; frameworks hold sequencing errors", "in_short": "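Using colony PCR, genes from sorted yeast display clones were amplified, then sequenced on MiSeq at 2 × 250 and filtered by CDR length. The clones had been stained with 10% biotinylated, detergent-solubilized Sf9 membrane reagent for 1 hour at 4 °C and sorted by FACS into low and high (top ~1%) gates on anti-HA and streptavidin fluorescence. Polyreactivity labels come from the gate of origin.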", "values": [
      {"sequence": "QVQLVESGGGLVQAGGSLRLSCAASGSTFYFNAMGWYRQAPGKERELVATISDNDGSTNYADSVKGRFTISRDNAKNTVYLQMNSLKPEDTAVYYCNADWYYYYEEDDYWGQGTQVTVSS", "polyreactivity (PSR sort gate)": "low polyreactivity"},
      {"sequence": "QVQLVESGGGLVQAGGSLRLSCAASGSTFYFYAMGLFRQAPGKERELVAAITSSGGSTYYAESVKGRFTISRDNAKNTVYLQMISQKPEDTAVYYCATTYPQRYNGYDYWGQGTQVTVSS", "polyreactivity (PSR sort gate)": "low polyreactivity"},
      {"sequence": "QVQLVESGGGLVQAGGSLRLSCAASGSTFYGKAMGWYRQAPGKERELVDTISWSGGSTYYADSVKGRFTISRDNAKNTVYLQMNSVKPEDTAVYYCNAEITTKSLVTRYSWYGGDYWRQGTQVTVSS", "polyreactivity (PSR sort gate)": "low polyreactivity"},
      {"sequence": "QVQLVESGGGLVQAGGSLRLSCAASGSTFYGNAMGWYRQAPGKERELVGAIRWRGGRTYYADSVKGRFTISRDNANNTVYLQMNSLKPEDTAVYYCNALPGVSHTQYDRVGYWGQGTQVTVSS", "polyreactivity (PSR sort gate)": "high polyreactivity"},
      {"sequence": "QVQLVESGGGLVQAGGSLRLSCAASGSTFYGNDMGWYRQAPGKERELVAAISSGGSTNYADSVKGRFTISRDNAKNTVYLQMNSLKPEDTAVYYCAADDTPDTISGSDYWGQGTQVTVSS", "polyreactivity (PSR sort gate)": "low polyreactivity"},
      {"sequence": "QVQLVESGGGLVQAGGSLRLSCAASGSTFYGNDMGWYRQAPGKERELVAAISSGGSTNYADSVKGRFTISRDNAKNTVYLQMNSLKPEDTAVYYCAADDTPDTMYGSDYWGQGTQVTVSS", "polyreactivity (PSR sort gate)": "low polyreactivity"},
      {"sequence": "QVQLVESGGGLVQAGGSLRLSCAASGSTFYGYTMGWYRRAPGKERELVAAITFRGGSTYYADSVKGRFTISRDNAKNTVYLQMNSLKPEDTAVYYCAAVGRYSRYPYSDTYGYWGQGTQVTVSS", "polyreactivity (PSR sort gate)": "high polyreactivity"},
      {"sequence": "QVQLVESGGGLVQAGGSLRLSCAASGSTFYHYAMGWYRQAPGKERELVAAISTGGSTYYADSVKGRFTISRDNAKNTVYLQMNSLKPEDTAVYYCNARYIGGYGYWGQGTQVTVSS", "polyreactivity (PSR sort gate)": "low polyreactivity"},
      {"sequence": "QVQLVESGGGLVQAGGSLRLSCAASGSTFYHYAMGWYRQAPGKERELVATISRRGGSTYYADSVKGRFTISRDNAKNTVYLQMNSLKPEDTAVYYCAAEYARSSRYKISSEMYYWGQGTQVTVSS", "polyreactivity (PSR sort gate)": "high polyreactivity"},
      {"sequence": "QVQLVESGGGLVQAGGSLRLSCAASGSTFYINAMGWYRQAPGKERELVADITVRGGNTYYADSVKGRFTISRDNAKNTVYLQMNSLKPEDTAVYYCNALLSGGRAGFDYWGQVTQVTVSS", "polyreactivity (PSR sort gate)": "high polyreactivity"},
      {"sequence": "QVQLVESGGGLVQAGGSLRLSCAASGSTFYINTMGWYRQAPGKEREFVAAITWSGGSTYYADSVKGRFTISRDNAKNTVYLQMNSLKPEDTAVYYCAADLYVGDMDYWGQGTQVTVAS", "polyreactivity (PSR sort gate)": "low polyreactivity"},
      {"sequence": "QVQLVESGGGLVQAGGSLRLSCAASGSTFYIYAMGWYRQAPGKDRELVARISGSGGSTYYADSVKGRITISRDNAKNTVYLQMNSLKPEDTAVYYCAATKFNSFYWRYGYWGQGTQVTVSS", "polyreactivity (PSR sort gate)": "low polyreactivity"},
      {"sequence": "QVQLVESGGGLVQAGGSLRLSCAASGSTFYIYAMGWYRQAPGKERELVAAITWSGSRTYYADSVKGRFTISRDNAKNTVYLQMNSLKPEDTAVYYCAARSYRNNRYKEDYWGQGTQVTVSS", "polyreactivity (PSR sort gate)": "high polyreactivity"},
      {"sequence": "QVQLVESGGGLVQAGGSLRLSCAASGSTFYIYAMGWYRQATGKERELVAAIDWNDGSTYYADSVKGRFTISRDNAKNTVYLEMHSLKPEDTAVYYCAAAIYIYRDGTYDYWGQGTQETVSS", "polyreactivity (PSR sort gate)": "high polyreactivity"},
      {"sequence": "QVQLVESGGGLVQAGGSLRLSCAASGSTFYIYVMGWYRQAPGKERELVARISSSGGSTYYADSVKGRFTISRDNAKNTVYLQMNSLKPEDTAVYYCNVDYGAWYDYWGQGTQVTVSS", "polyreactivity (PSR sort gate)": "low polyreactivity"},
      {"sequence": "QVQLVESGGGLVQAGGSLRLSCAASGSTFYKNAMGWYRQAPGKERELVARISGRGGSTYYADSVKGRFTISRDNAKNTVYLQMNSLKPEDTAVYYCNALYRVFVGTYDYWGQGTQVTVSS", "polyreactivity (PSR sort gate)": "high polyreactivity"},
      {"sequence": "QVQLVESGGGLVQAGGSLRLSCAASGSTFYKNSMGWYRQAPGKERELVATISASSTSTYYADSVKGRFTISRDNAKNTVYLQMNSLKPEATAVYYCSKVYVHGSTYGYYWYGYDYWGQGTQVTVSS", "polyreactivity (PSR sort gate)": "low polyreactivity"},
      {"sequence": "QVQLVESGGGLVQAGGSLRLSCAASGSTFYKSTMGCYRQPPGKESELVPAISGSATTTYYADSVKGRFTISRDNAKNTVYLQMNSLKPEDTAVYYCAARRFSPGSSGHGYWGQGTQVNVSS", "polyreactivity (PSR sort gate)": "high polyreactivity"},
      {"sequence": "QVQLVESGGGLVQAGGSLRLSCAASGSTFYKYAMGWYRQAPGKERELVAAITRSGGSTYYADSVKGRFTISRDNAKNTVYLQMNSLKPEDTAVYYCNADRKSRSKGVGYDYWGQGTQVTVSS", "polyreactivity (PSR sort gate)": "high polyreactivity"},
      {"sequence": "QVQLVESGGGLVQAGGSLRLSCAASGSTFYKYAMGWYRQAPGKERELVASITWSGTSTYYADSVKGRFTISRDKAKNTVYLQMNSLKPEDTAVYYCNAGLESYYWGYTWEFDYWGQGTQVTVSS", "polyreactivity (PSR sort gate)": "low polyreactivity"},
      {"sequence": "QVQLVESGGGLVQAGGSLRLSCAASGSTFYLNAMGWYRQAPGKEREFVAAIRGGGTSTRYADSVKGRFTISRDNAKNTVYLQMNSLKPEDTAVYFCAAPRVVYRGDYWGQGTQVTVSS", "polyreactivity (PSR sort gate)": "high polyreactivity"},
      {"sequence": "QVQLVESGGGLVQAGGSLRLSCAASGSTFYLYAMGWYRQAPGKEREFVAAISWSGGRTYYADSVKGRFTISRDNAKNTVYLQMNSLKPEDTAVYYCAARRRYTWQYTRYDMGYWGQGTQVTVSS", "polyreactivity (PSR sort gate)": "low polyreactivity"},
      {"sequence": "QVQLVESGGGLVQAGGSLRLSCAASGSTFYLYAMGWYRQAPGKERELVAAISRGGTTYYADSVKGRFTISRDNAKNTVYLQMNSLKPEETAVYYCNARYTSRRSRRPYYYWGQGTQVTVSS", "polyreactivity (PSR sort gate)": "high polyreactivity"},
      {"sequence": "QVQLVESGGGLVQAGGSLRLSCAASGSTFYLYAMGWYRQAPGKERELVAAISWSGDSTYYADSVKGRFTISRDNAKNTVYLQMNSLKPEDTAVYYCAAEFYWGDLSYWGQGTQVSVSS", "polyreactivity (PSR sort gate)": "high polyreactivity"},
      {"sequence": "QVQLVESGGGLVQAGGSLRLSCAASGSTFYLYAMGWYRQAPGKERELVAAISWSGGDTYYADSVKGRFTISRDNANNTVYLQMTSLKPEDSAVYYCAAEITYSYPGSPRRRDYWGQGTQVTVSS", "polyreactivity (PSR sort gate)": "low polyreactivity"},
      {"sequence": "QVQLVESGGGLVQAGGSLRLSCAASGSTFYLYAMGWYRQAPGKERELVASITSGDGSTYYADSVKGRFTISRDNPKNTVYLQMNSLKPEDTAVYDCNAVLEGWFYQDDYWGQGTQVSVSS", "polyreactivity (PSR sort gate)": "low polyreactivity"},
      {"sequence": "QVQLVESGGGLVQAGGSLRLSCAASGSTFYLYAMGWYRQAPGKERELVATITNGGGTNYADSVKGRFTISRDNAKNTVYLQMNSLKAEDTAVYYCAAKWYHRDGDYWGQGTQVTVSS", "polyreactivity (PSR sort gate)": "low polyreactivity"},
      {"sequence": "QVQLVESGGGLVQAGGSLRLSCAASGSTFYLYAMGWYRQAPGKERELVAVITTDGSTTYADSVKGRFTISRDNAKNTVYLQMNSLKPEDTAVYYCAAYGGNGQYYSQYDYWGQGTQVTVSS", "polyreactivity (PSR sort gate)": "low polyreactivity"},
      {"sequence": "QVQLVESGGGLVQAGGSLRLSCAASGSTFYLYGMGWYRQAPGKERELVAAITYSGGSTYYADSVKGRFTISRDNAKNTVYLQMNSLKPEDTAVYYCNARSQWRSSRFYYWGQGTQVTVSS", "polyreactivity (PSR sort gate)": "high polyreactivity"},
      {"sequence": "QVQLVESGGGLVQAGGSLRLSCAASGSTFYNNAMGWYRQAPGKERELVAVITDSGGRTYYADSVKGRFTISRDNAKNTVYLQMNSLKPEDTAVYYCAVVAPGGGDDYWGQGTQVTVSS", "polyreactivity (PSR sort gate)": "low polyreactivity"},
      {"sequence": "QVQLVESGGGLVQAGGSLRLSCAASGSTFYNYAMGWYRQAPGKERELVAAITSSGGSTYYADSVKGRFTISRDNAKNTVYLQMNSLKPEDTAVYYCAATRRVRRKSFTYRYDYWGQGTQVTVSS", "polyreactivity (PSR sort gate)": "high polyreactivity"},
      {"sequence": "QVQLVESGGGLVQAGGSLRLSCAASGSTFYNYAMGWYRQAPGKERELVAAITSSGGSTYYADSVKGRFTISRDNAKNTVYLQMNSLKPEDTAVYYCNADDGYGQVHSISTYEMDYWGQGTQVTVSS", "polyreactivity (PSR sort gate)": "low polyreactivity"},
      {"sequence": "QVQLVESGGGLVQAGGSLRLSCAASGSTFYNYVMGWYRQAPGKERELVAAINWSGCRTYYADSVKGRFTISRDNAKNTVYLQMNSLKPEDTAVYYCAAGYTLPWYKGFDYWGQGTQVTVSS", "polyreactivity (PSR sort gate)": "high polyreactivity"},
      {"sequence": "QVQLVESGGGLVQAGGSLRLSCAASGSTFYPYAMGWYRQAPGKERELVAAIRFSGASTYYADSVKGRFTISRDNAKNTVYLQMNSLKPEDTAVYYCAARYVYSWPYRYGYWGQGTQVTVSS", "polyreactivity (PSR sort gate)": "low polyreactivity"},
      {"sequence": "QVQLVESGGGLVQAGGSLRLSCAASGSTFYPYAMGWYRQAPGKERELVAAISISGGITYYADSVKGRFTISRDNAKNTVYLQMNSLKPEDTAVYYCAAEYLAVSGYWYDYWGQGTQVTVSS", "polyreactivity (PSR sort gate)": "high polyreactivity"},
      {"sequence": "QVQLVESGGGLVQAGGSLRLSCAASGSTFYPYAMGWYRQAPGKERELVAAISSGGSTSYADSVKGRFTISRDNAKNTVYLQMNSLKPEDTAVYYCNASSPGAVPVYYYDYWGQGTQVTVSS", "polyreactivity (PSR sort gate)": "low polyreactivity"},
      {"sequence": "QVQLVESGGGLVQAGGSLRLSCAASGSTFYPYDMGWYRQAPGKERELVATMTSTGGSTNYADSVKGRFTISRDNAKNTVYLQMNSLKPEDTAVYYCAKDWNDDQHSWDTPFDYWGQGTQVTVSS", "polyreactivity (PSR sort gate)": "low polyreactivity"},
      {"sequence": "QVQLVESGGGLVQAGGSLRLSCAASGSTFYPYLIGWYRQAPGKERELLPAISGGGRTYYADSVKGRFTISRDNAKNTVYLQMNSLKPEDTAVYFCAARYTTYSGRGTRPAGIRYDYWGQGTQVTVSS", "polyreactivity (PSR sort gate)": "high polyreactivity"},
      {"sequence": "QVQLVESGGGLVQAGGSLRLSCAASGSTFYRNAMGWYRPAPGKERELVAAINSTDSTNYADSVKGRFTISRDNAKNTVYLQMNSLKPEDTAVYYCAAVGDNLATAEYDYWGQGTQVTVSS", "polyreactivity (PSR sort gate)": "low polyreactivity"},
      {"sequence": "QVQLVESGGGLVQAGGSLRLSCAASGSTFYRNAMGWYRQAPGKEREFVAAISFRGGGTYADSVKGRFTISRDNAKNTVYLQMNSLKPEDTAVYYCAADHLSYRRRYEYWGLGTQVTVSS", "polyreactivity (PSR sort gate)": "low polyreactivity"},
      {"sequence": "QVQLVESGGGLVQAGGSLRLSCAASGSTFYRNAMGWYRQAPGKEREFVAAITTDDSTYYADSVKGRFTISRDNAKNTVYVQMNSLKPEDTAVYYCAAGLEGKATWAAVGGYDYWGQGTQVTVSS", "polyreactivity (PSR sort gate)": "low polyreactivity"},
      {"sequence": "QVQLVESGGGLVQAGGSLRLSCAASGSTFYRNAMGWYRQAPGKERELVAAISRDGSTYYADSVKGRFTISRDNAKNTVYLQMNSLKPEDTAVYSCAKAGVTNGVVVDSVYAYDYWGQGTQVTVSS", "polyreactivity (PSR sort gate)": "low polyreactivity"},
      {"sequence": "QVQLVESGGGLVQAGGSLRLSCAASGSTFYRNAMGWYRQAPGKERELVAAITSRGTRTFYADSVKGRFTISRDNAKNTVYLQMNSLKPEDTAVYYCAVTYQAEDEYDYWGQGTQVTVSS", "polyreactivity (PSR sort gate)": "low polyreactivity"}
    ]}
  ]
}
